# Biological target: reconstituted elongation complex (EC): His-tagged E. coli RNAP core complex on template DNA, non-template DNA … (E. coli, Core RNAP assembled with biotinylated 49-mer template/non-template DNA and RNA primer (nucleic acid sequences in the supplement). The text gives only 'RNAP core complex' from pIA900; alpha2-beta-beta')
# Sequence (A1AGI6 whole entry, chain 1 of 4): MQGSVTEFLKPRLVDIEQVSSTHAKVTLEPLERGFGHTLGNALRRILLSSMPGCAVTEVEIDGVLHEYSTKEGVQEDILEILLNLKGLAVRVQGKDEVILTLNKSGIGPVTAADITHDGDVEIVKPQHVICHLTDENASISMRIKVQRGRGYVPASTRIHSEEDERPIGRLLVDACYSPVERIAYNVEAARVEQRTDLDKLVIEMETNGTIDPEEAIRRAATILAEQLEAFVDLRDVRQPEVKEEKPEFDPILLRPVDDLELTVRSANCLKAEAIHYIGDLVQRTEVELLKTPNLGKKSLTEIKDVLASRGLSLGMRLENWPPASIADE
# Sequence (A1AIF9 whole entry, chain 2 of 4, further chain): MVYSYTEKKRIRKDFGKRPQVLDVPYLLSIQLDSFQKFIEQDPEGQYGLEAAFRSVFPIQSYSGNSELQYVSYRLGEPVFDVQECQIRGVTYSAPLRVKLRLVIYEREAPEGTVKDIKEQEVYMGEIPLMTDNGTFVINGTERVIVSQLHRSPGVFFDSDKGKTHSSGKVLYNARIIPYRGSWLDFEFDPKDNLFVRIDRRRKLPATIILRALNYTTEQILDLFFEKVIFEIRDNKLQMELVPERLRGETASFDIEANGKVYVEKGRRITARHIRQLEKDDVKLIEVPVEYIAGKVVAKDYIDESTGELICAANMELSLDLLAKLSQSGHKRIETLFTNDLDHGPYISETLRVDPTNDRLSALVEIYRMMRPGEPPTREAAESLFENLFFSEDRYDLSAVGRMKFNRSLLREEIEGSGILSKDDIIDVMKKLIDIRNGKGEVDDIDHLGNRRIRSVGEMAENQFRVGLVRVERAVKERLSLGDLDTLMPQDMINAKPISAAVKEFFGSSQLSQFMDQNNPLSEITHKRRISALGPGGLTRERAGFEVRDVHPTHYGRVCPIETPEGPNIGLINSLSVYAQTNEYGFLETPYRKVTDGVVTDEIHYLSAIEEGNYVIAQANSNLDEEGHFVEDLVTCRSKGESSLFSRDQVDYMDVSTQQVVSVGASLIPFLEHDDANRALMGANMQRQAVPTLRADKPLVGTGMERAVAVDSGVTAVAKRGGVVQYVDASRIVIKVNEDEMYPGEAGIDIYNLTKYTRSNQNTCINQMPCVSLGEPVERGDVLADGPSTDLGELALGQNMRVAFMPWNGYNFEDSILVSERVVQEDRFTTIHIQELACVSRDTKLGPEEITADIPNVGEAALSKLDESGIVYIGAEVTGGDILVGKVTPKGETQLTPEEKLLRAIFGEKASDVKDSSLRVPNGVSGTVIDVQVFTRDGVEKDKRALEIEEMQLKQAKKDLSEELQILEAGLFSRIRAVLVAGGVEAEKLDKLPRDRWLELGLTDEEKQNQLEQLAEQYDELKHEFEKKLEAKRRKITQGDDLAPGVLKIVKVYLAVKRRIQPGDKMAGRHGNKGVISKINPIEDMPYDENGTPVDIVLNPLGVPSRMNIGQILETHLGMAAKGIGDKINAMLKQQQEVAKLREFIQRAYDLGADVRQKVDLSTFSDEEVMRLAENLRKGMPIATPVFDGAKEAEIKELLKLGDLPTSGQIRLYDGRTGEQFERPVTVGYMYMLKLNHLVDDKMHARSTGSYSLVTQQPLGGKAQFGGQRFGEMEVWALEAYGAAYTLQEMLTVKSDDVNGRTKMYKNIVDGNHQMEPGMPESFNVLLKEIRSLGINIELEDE
# Sequence (A7ZUK2 whole entry, chain 3 of 4, further chain): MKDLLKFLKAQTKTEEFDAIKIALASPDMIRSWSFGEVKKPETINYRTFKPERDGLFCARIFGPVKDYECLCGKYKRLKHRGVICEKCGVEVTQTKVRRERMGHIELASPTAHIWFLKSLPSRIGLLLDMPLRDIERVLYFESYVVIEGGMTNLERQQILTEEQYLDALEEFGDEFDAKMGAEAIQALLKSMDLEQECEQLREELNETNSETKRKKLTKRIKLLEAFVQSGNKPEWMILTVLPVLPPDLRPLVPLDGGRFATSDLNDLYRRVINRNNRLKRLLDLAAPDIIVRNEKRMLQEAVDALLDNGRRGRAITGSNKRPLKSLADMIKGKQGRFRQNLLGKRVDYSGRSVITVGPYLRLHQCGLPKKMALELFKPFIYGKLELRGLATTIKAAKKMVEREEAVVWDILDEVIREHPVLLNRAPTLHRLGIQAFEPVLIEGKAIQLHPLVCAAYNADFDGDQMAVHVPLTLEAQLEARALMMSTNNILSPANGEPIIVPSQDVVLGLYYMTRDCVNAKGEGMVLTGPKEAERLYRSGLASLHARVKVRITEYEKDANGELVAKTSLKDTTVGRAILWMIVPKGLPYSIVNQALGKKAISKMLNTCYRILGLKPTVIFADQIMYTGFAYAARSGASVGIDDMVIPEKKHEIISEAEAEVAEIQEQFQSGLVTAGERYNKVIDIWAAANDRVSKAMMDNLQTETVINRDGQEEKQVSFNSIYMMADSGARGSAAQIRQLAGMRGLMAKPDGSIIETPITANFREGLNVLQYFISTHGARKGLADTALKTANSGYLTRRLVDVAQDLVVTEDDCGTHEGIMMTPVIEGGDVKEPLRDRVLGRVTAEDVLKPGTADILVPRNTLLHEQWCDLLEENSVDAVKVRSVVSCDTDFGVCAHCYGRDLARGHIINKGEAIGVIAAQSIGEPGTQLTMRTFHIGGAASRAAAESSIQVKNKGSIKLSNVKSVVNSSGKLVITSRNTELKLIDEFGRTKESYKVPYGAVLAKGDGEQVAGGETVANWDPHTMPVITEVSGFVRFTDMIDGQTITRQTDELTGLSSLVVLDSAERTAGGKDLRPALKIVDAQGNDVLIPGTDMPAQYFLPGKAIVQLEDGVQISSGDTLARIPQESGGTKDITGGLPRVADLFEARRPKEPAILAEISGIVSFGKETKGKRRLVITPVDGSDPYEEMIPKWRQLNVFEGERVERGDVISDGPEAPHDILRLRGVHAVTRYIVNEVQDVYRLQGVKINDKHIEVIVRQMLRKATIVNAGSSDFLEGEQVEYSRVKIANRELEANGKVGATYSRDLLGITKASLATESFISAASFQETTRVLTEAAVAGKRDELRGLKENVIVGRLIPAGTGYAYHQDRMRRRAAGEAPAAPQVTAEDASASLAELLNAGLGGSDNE
# Sequence (A1AHI0 2-91, chain 4 of 4, further chain): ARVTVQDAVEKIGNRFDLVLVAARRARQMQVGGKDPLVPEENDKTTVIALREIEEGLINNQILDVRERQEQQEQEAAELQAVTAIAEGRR
# Assay: SPR; BIAcore T200, SA chip; reconstituted EC on biotinylated 49-mer immobilised (550 RU after 1 M KCl wash); Mfd 0-640 nM flowed in SPR buffer (30 mM Tris/HCl pH 7.6, 40 mM KCl, 5 mM MgCl2, 0.005% P20, 0.25 mM EDTA, 0.5 mM DTT) with 0.5 mM ATPɣS; 20°C; 1:1 steady state affinity fit
# Conditions: both partners purified
binder,measurement,value
"Mfd, the bacterial transcription-repair coupling factor (wild type) (natural protein, E. coli, UniProt P30958 1-1148, looked up, Mfd (transcription-repair coupling factor), E. coli; mfd gene without ypet inserted in vector pSH1017, plasmid pHG4137; called full-length Mfd in the cryo-EM section; No tag is stated; purified by conventional chromatography; In the SPR it was flowed with 0.5 mM ATPɣS; also called TRCF; wildtype Mfd; source: E. coli BL21(λDE3)recA, purified (ammonium sulfate, DEAE, heparin Sepharose)) MPEQYRYTLPVKAGEQRLLGELTGAACATLVAEIAERHAGPVVLIAPDMQNALRLHDEISQFTDQMVMNLADWETLPYDSFSPHQDIISSRLSTLYQLPTMQRGVLIVPVNTLMQRVCPHSFLHGHALVMKKGQRLSRDALRTQLDSAGYRHVDQVMEHGEYATRGALLDLFPMGSELPYRLDFFDDEIDSLRVFDVDSQRTLEEVEAINLLPAHEFPTDKAAIELFRSQWRDTFEVKRDPEHIYQQVSKGTLPAGIEYWQPLFFSEPLPPLFSYFPANTLLVNTGDLETSAERFQADTLARFENRGVDPMRPLLPPQSLWLRVDELFSELKNWPRVQLKTEHLPTKAANANLGFQKLPDLAVQAQQKAPLDALRKFLETFDGPVVFSVESEGRREALGELLARIKIAPQRIMRLDEASDRGRYLMIGAAEHGFVDTVRNLALICESDLLGERVARRRQDSRRTINPDTLIRNLAELHIGQPVVHLEHGVGRYAGMTTLEAGGITGEYLMLTYANDAKLYVPVSSLHLISRYAGGAEENAPLHKLGGDAWSRARQKAAEKVRDVAAELLDIYAQRAAKEGFAFKHDREQYQLFCDSFPFETTPDQAQAINAVLSDMCQPLAMDRLVCGDVGFGKTEVAMRAAFLAVDNHKQVAVLVPTTLLAQQHYDNFRDRFANWPVRIEMISRFRSAKEQTQILAEVAEGKIDILIGTHKLLQSDVKFKDLGLLIVDEEHRFGVRHKERIKAMRANVDILTLTATPIPRTLNMAMSGMRDLSIIATPPARRLAVKTFVREYDSMVVREAILREILRGGQVYYLYNDVENIQKAAERLAELVPEARIAIGHGQMRERELERVMNDFHHQRFNVLVCTTIIETGIDIPTANTIIIERADHFGLAQLHQLRGRVGRSHHQAYAWLLTPHPKAMTTDAQKRLEAIASLEDLGAGFALATHDLEIRGAGELLGEEQSGSMETIGFSLYMELLENAVDALKAGREPSLEDLTSQQTEVELRMPSLLPDDFIPDVNTRLSFYKRIASAKTENELEEIKVELIDRFGLLPDPARTLLDIARLRQQAQKLGIRKLEGNEKGGVIEFAEKNHVNPAWLIGLLQKQPQHYRLDGPTRLKFIQDLSERKTRIEWVRQFMRELEENAIA",Kd,127 ± 6 nM

# From publication PMC9177983, “Mechanism of transcription modulation by the transcription-repair coupling factor” (Nucleic Acids Research, 2021)
